Reference: PMC12162048 (Blood Vessels, Thrombosis & Hemostasis, 2024)

T1: protein S, purified, P07225
T1 chain: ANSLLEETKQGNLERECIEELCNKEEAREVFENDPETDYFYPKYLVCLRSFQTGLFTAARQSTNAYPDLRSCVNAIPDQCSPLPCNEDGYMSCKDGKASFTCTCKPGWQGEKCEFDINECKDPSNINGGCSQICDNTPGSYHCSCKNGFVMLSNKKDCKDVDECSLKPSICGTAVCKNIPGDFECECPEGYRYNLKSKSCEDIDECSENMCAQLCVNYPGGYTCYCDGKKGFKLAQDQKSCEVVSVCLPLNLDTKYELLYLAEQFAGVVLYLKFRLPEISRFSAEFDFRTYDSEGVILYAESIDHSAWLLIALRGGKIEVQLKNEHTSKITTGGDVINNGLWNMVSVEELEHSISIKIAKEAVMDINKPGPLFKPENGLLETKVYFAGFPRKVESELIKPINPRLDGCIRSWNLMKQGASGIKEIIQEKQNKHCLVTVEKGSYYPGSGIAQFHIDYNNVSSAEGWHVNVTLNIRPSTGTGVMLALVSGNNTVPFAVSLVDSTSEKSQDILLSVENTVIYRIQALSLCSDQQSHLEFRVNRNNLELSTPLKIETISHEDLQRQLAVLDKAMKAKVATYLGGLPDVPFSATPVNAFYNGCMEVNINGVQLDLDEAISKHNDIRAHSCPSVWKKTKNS

B1: protein S, purified, P07225 42-676 (natural protein)
chain: T1 chain
B2: biotinylated protein S (natural protein)
chain: T1 chain
modifications: biotin (biotinylated, sites not stated)

How the values were obtained:
[1] = target: T1, protein S, purified, P07225; assay: native gel or EMSA; details: remark: other sources report otherwise
[2] = target: von Willebrand factor of plasma (human (endogenous in plasma), UniProt P04275 764-2813); assay: ELISA

Row | Binder | stoichiometry N [1] | fold change of the apparent interaction with MerTK against without MerTK [2] [fold]
1 | B1 | 2 | 
2 | B2 |  | ~2
